Test results as given in PMC2909360.

Columns and labels:
[1] = molecular target: sialostatin L (Ixodes scapularis) (UniProt Q8MVB6); assay: crystal structure
[2] = molecular target: recombinant human cathepsin S (human) (UniProt P25774)
purified papain = molecular target: T1, purified papain (UniProt P00784)
T1 sequence: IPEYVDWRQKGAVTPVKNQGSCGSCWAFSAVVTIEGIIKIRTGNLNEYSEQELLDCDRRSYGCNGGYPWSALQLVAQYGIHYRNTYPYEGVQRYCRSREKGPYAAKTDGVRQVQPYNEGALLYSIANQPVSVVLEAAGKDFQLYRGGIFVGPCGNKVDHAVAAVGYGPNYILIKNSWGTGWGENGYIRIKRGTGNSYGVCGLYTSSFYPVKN

[3] = molecular target: purified bovine cathepsin C (bovine)
Chain of purified bovine cathepsin C (bovine) (Q3ZCJ8 25-463): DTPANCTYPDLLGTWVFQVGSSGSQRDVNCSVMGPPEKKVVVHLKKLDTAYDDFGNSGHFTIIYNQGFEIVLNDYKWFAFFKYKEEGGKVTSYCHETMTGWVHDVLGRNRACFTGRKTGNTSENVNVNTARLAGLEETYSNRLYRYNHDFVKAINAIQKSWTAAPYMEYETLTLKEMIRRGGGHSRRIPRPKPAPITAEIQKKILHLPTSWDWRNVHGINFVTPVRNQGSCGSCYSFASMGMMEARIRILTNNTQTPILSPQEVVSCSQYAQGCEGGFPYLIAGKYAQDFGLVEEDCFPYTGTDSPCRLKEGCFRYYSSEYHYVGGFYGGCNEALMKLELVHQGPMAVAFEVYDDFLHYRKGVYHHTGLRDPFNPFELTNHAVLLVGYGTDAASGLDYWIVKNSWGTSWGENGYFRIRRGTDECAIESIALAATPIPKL

[4] = molecular target: T2, purified human cathepsin H (human)
T2 sequence (P09668 116-335, looked up): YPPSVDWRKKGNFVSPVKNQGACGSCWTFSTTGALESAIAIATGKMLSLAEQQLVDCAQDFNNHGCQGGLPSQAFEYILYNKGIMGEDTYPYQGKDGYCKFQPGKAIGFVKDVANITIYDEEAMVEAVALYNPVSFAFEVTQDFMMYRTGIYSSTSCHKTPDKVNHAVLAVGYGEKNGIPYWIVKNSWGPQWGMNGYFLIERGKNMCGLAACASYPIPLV

[5] = molecular target: purified bovine cathepsin B (bovine)
[6] = molecular target: recombinant human cathepsin L (human) (UniProt P07711)
Chain of recombinant human cathepsin L (human) (P07711 18-333): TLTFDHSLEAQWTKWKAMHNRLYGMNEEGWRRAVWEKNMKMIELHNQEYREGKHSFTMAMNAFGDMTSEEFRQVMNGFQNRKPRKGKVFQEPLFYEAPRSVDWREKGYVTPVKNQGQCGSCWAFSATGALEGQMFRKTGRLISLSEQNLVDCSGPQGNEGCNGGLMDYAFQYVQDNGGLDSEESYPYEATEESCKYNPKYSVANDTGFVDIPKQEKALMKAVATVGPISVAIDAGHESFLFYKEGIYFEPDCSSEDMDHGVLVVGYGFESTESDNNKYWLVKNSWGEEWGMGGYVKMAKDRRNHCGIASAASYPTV

Chain of purified chicken egg white cystatin (P01038 24-139): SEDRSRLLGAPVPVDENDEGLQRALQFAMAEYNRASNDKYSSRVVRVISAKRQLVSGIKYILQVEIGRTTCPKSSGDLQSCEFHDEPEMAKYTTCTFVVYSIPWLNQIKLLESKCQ
Chain of recombinant human cathepsin S (human) (P25774 17-331): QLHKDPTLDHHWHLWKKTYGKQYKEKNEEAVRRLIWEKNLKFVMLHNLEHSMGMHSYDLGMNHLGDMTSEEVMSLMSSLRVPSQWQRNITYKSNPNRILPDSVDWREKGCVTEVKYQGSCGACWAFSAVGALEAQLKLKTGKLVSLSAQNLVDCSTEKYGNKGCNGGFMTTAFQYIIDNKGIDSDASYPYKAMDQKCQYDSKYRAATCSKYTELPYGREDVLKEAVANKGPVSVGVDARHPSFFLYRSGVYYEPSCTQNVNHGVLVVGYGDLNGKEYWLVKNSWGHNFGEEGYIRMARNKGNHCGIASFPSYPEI

| Substance | stoichiometry N [1] | IC50 of inhibition of enzyme activity (fluorogenic substrate) [2] [nM] | IC50 of inhibition of enzyme activity (fluorogenic substrate) (purified papain) [nM] | IC50 of inhibition of enzyme activity (fluorogenic substrate) [3] [nM] | IC50 of inhibition of enzyme activity (fluorogenic substrate) [4] [nM] | IC50 of inhibition of enzyme activity (fluorogenic substrate) [5] [nM] | IC50 of inhibition of enzyme activity (fluorogenic substrate) [6] [nM] |
| --- | --- | --- | --- | --- | --- | --- | --- |
| sialostatin L (from UniProt Q8MVB6 20-133) (natural protein) | 2 |  |  |  |  |  |  |
| purified chicken egg white cystatin (from UniProt P01038 24-139) (natural protein) |  | 3.2 | 4.4 | 3.1 | 39 | 800 | 2.9 |
